Residue numbers refer to the chain shown, from its start.
Tests used:
CD19 [1] = target: CD19 (UniProt P15391); test: cell-based or functional assay
CD19 [2] = target: T1, CD19 (UniProt P15391 20-556, limits assumed); test: cell-based or functional assay
T1 sequence (looked up): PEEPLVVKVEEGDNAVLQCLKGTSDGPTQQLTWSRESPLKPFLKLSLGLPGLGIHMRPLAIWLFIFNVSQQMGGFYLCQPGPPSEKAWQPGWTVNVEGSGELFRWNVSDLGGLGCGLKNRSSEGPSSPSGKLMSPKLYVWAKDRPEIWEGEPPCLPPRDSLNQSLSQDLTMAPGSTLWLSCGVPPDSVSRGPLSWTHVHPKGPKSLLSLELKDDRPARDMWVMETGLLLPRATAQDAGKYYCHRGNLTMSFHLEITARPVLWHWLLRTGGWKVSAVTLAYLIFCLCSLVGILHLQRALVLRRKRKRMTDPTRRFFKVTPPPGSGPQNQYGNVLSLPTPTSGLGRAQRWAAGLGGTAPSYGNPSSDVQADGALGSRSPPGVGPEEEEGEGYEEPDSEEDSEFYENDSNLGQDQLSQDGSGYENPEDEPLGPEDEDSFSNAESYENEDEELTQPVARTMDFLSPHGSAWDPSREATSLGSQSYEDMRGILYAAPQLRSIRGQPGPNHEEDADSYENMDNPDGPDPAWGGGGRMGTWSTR

CD19 [3] = target: T2, CD19 (UniProt P15391 20-556); test: flow cytometry cell binding; FIG. 6
T2 chain: T1 sequence (looked up)

CD19 [4] = target: T2, CD19; test: flow cytometry cell binding; FIG. 8

B1: hFMCL2b-LCNT/hFMCH4c (Fab, V domains shown)
VH: QVQLQESGPGLVKPSETLSVTCTVSGVSLPDYGVSWIRQPPGKGLEWLGVIWGSETTYYNSALKSRLTISKDNSKNQVSLKMSSLTAADTAVYYCAKHYYYGGSYAMDYWGQGTLVTVSS
VL: DIQMTQSPSSLSASVGDRVTITCRASQDISKYLNWYQQKPGKAVKLLIYHTSRLHSGVPSRFSGSGSGTDYTLTISSLQPEDFATYFCQQGATLPYTFGQGTKLEIK
How did the EC50 of cytotoxicity (LDH), sCAR-T cells + switch vs CD19+ RS4;11, Average of the repeat assays (CD19 [1]) turn out when B1 was run?
The EC50 of cytotoxicity (LDH), sCAR-T cells + switch vs CD19+ RS4;11, Average of the repeat assays was 10.2 pM.

What about the EC50 of cytotoxicity (LDH), sCAR-T cells + switch vs CD19+ RS4;11, assay DTR-5-15 (PBMC) (CD19 [1]) of the same binder?
Its EC50 of cytotoxicity (LDH), sCAR-T cells + switch vs CD19+ RS4;11, assay DTR-5-15 (PBMC) is 8.41 pM.

What about the EC50 of cytotoxicity (LDH), sCAR-T cells + switch vs CD19+ RS4;11, assay DTR-5-16 (CD4:CD8) (CD19 [1]) of the same binder?
Its EC50 of cytotoxicity (LDH), sCAR-T cells + switch vs CD19+ RS4;11, assay DTR-5-16 (CD4:CD8) is 8.47 pM.

What about the EC50 of cytotoxicity (LDH), sCAR-T cells + switch vs CD19+ RS4;11, assay DTR-5-50 (PBMC) (CD19 [1]) of the same binder?
Its EC50 of cytotoxicity (LDH), sCAR-T cells + switch vs CD19+ RS4;11, assay DTR-5-50 (PBMC) is 7.54 pM.

What about the EC50 of cytotoxicity (LDH), sCAR-T cells + switch vs CD19+ RS4;11, assay DTR-5-51 (CD4:CD8) (CD19 [1]) of the same binder?
The EC50 of cytotoxicity (LDH), sCAR-T cells + switch vs CD19+ RS4;11, assay DTR-5-51 (CD4:CD8) was 16.5 pM.

And the “EC50 of cytotoxicity (LDH), sCAR-T cells + switch vs CD19+ RS4;11, Average of the repeat assays” value (CD19 [2])?
Its value is 4.6 pM.

And the “EC50 of cytotoxicity (LDH), sCAR-T cells + switch vs CD19+ RS4;11, assay DTR-5-15 (PBMC)” value (CD19 [2])?
The value was 4.57 pM.

And the “EC50 of cytotoxicity (LDH), sCAR-T cells + switch vs CD19+ RS4;11, assay DTR-5-16 (CD4:CD8)” value (CD19 [2])?
Its value is 4.61 pM.

And the “EC50 of cytotoxicity (LDH), sCAR-T cells + switch vs CD19+ RS4;11, assay DTR-5-50 (PBMC)” value (CD19 [2])?
The value was 3.78 pM.

And the “EC50 of cytotoxicity (LDH), sCAR-T cells + switch vs CD19+ RS4;11, assay DTR-5-51 (CD4:CD8)” value (CD19 [2])?
The value was 5.45 pM.

And the EC50 (CD19 [3])?
Its EC50 is 1260 pM.

And the EC50 (CD19 [4])?
Its EC50 is 1590 pM.

B2: hFMCL2a-LCNT/hFMCH4c (Fab, V domains shown)
VH: B1 VH
VL: B1 VL with F87Y
Which “EC50 of cytotoxicity (LDH), sCAR-T cells + switch vs CD19+ RS4;11, Average of the repeat assays” value (CD19 [2]) does the source give for B2 here?
The value was 9.5 pM.

And the “EC50 of cytotoxicity (LDH), sCAR-T cells + switch vs CD19+ RS4;11, assay DTR-5-15 (PBMC)” value (CD19 [2])?
The value was 4.43 pM.

What about the “EC50 of cytotoxicity (LDH), sCAR-T cells + switch vs CD19+ RS4;11, assay DTR-5-16 (CD4:CD8)” value (CD19 [2]) of the same binder?
The value was 9.32 pM.

What about the “EC50 of cytotoxicity (LDH), sCAR-T cells + switch vs CD19+ RS4;11, assay DTR-5-50 (PBMC)” value (CD19 [2]) of the same binder?
The value was 7.05 pM.

And the “EC50 of cytotoxicity (LDH), sCAR-T cells + switch vs CD19+ RS4;11, assay DTR-5-51 (CD4:CD8)” value (CD19 [2])?
Its value is 17.2 pM.

And the EC50 (CD19 [3])?
The EC50 was 1700 pM.

What about the EC50 (CD19 [4]) of the same binder?
Its EC50 is 1810 pM.

B3: hFMCL2/H4z (antibody, V domains shown)
VH: B1 VH with A62S
VL: B1 VL with V44P, F87Y
Which results are given for B3?
EC50 (CD19 [3]): 12400 pM; EC50 (CD19 [4]): 13100 pM

— patent US20190359697A1 (Scripps Research, published 2019)
